These results are taken from US20240043537A1 (MacroGenics, published 2024).

The term Kd denotes the constant that tells how readily two partners part at equilibrium. Higher therefore signals weaker binding.

In assay [1] the target is T1, CD123 on MOLM-13 cells (UniProt P26951 19-378, limits assumed).
T1 construct: whole, on cells; also called CD123-expressing MOLM-13 cells
The assay can be described thus: flow cytometry on CD123-expressing MOLM-13 cells, MFI (geo mean) against concentration (nM). Background: In flow cytometry, cells or beads pass a laser one at a time.

Assay [2] has as its target cyno CD3 (cynomolgus, UniProt Q95LI5 22-117). The assay can be described thus: SPR (BIAcore), diabody 6.25-400 nM over immobilized cyno CD3, 1:1 Langmuir fit. As to the method:
(§1) In additional studies the ability of CD123-binding diabodies: CD123-WT, CD123-M13, CD123-M17 and CD123-M19 to bind to human CD3 and cynomolgus CD3 was also evaluated using BIAcore®. […] Table 15B presents the calculated kₐ, kd and KD.

Assay [3] addresses T2, soluble human CD3 (human, UniProt P07766 23-126). The assay can be described thus: SPR (BIAcore), diabody 6.25-400 nM over immobilized human CD3, 1:1 Langmuir fit. The procedure: as §1
A general note: Surface plasmon resonance follows binding to a sensor surface in real time, without labels.

The target of assay [4] is T2, soluble human CD3. Briefly: SPR (BIAcore), diabody over immobilized soluble human CD3, 1:1 fit. The procedure: (§2) The ability of the CD123-binding diabodies: CD123-WT, CD123-M1, CD123-M2 and CD123-M18 to bind to human CD3 and CD123 was also evaluated using BIAcore®. […] Table 14 presents the calculated kₐ, kd and KD from these studies.
Assay [5] concerns the target T3, soluble human CD123, His-tagged (human, UniProt P26951 19-305).
T3 construct: Captured on an anti-PentaHis surface; also called soluble CD123; not shown: His tag
T3 sequence (looked up): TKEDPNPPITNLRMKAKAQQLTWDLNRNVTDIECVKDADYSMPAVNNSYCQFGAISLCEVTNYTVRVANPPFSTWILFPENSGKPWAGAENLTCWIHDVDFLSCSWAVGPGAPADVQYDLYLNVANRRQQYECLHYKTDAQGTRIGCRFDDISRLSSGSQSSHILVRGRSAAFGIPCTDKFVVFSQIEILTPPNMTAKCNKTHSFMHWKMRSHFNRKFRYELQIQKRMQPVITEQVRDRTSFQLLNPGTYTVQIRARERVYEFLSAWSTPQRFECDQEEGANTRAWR
Briefly: SPR (BIAcore), diabody over His-tagged CD123 captured on anti-PentaHis, 1:1 fit. The procedure:
as §2

T2 sequence (P07766 23-126): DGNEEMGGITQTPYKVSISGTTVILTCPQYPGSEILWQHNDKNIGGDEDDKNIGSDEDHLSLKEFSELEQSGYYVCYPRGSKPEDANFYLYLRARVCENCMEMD
T1 sequence (P26951 19-378 limits assumed): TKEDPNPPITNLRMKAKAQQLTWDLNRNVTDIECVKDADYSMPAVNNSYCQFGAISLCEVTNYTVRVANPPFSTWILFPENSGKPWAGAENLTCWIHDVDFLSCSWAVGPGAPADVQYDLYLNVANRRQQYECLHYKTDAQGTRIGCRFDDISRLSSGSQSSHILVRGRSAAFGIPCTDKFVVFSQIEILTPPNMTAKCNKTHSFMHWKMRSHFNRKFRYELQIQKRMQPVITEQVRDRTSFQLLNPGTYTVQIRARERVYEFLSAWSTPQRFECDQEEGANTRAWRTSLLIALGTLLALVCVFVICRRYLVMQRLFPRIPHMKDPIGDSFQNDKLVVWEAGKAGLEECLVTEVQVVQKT
Sequence of cyno CD3 (Q95LI5 22-117): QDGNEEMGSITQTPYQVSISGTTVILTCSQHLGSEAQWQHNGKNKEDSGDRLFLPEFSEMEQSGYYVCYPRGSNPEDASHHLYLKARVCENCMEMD

B1: T-CD123-M2 (other)
chain 1: DFVMTQSPDSLAVSLGERVTMSCKSSQSLLNSGNQKNYLTWYQQKPGQPPKLLIYWASTRESGVPDRFSGSGSGTDFTLTISSLQAEDVAVYYCQNDYSYPYTFGQGTKLEIKGGGSGGGGEVQLVESGGGLVQPGGSLRLSCAASGFTFSTYAMNWVRQAPGKGLEWVGRIRSKYNNYATYYADSVKDRFTISRDDSKNSLYLQMNSLKTEDTAVYYCVRHKNFGNSYVTWFAYWGQGTLVTVSSGGCGGGEVAALEKEVAALEKEVAALEKEVAALEKGGGDKTHTCPPCPAPEAAGGPSVFLFPPKPKDTLMISRTPEVTCVVVDVSHEDPEVKFNWYVDGVEVHNAKTKPREEQYNSTYRVVSVLTVLHQDWLNGKEYKCKVSNKALPAPIEKTISKAKGQPREPQVYTLPPSREEMTKNQVSLWCLVKGFYPSDIAVEWESNGQPENNYKTTPPVLDSDGSFFLYSKLTVDKSRWQQGNVFSCSVMHEALHNHYTQKSLSLSPGK
chain 2: QAVVTQEPSLTVSPGGTVTLTCRSSTGAVTTSNYANWVQQKPGQAPRGLIGGTNKRAPWTPARFSGSLLGGKAALTITGAQAEDEADYYCALWYSNLWVFGGGTKLTVLGGGGSGGGGEVQLVQSGAELKKPGASVKVSCKASGYTFTDYYMKWVRQAPGQGLEWIGDIIPSNGATFYNQKFKGRVTITVDKSTSTAYMELSSLRSEDTAVYYCARSHLLRASWFAYWGQGTLVTVSSGGCGGGKVAALKEKVAALKEKVAALKEKVAALKE
heavy: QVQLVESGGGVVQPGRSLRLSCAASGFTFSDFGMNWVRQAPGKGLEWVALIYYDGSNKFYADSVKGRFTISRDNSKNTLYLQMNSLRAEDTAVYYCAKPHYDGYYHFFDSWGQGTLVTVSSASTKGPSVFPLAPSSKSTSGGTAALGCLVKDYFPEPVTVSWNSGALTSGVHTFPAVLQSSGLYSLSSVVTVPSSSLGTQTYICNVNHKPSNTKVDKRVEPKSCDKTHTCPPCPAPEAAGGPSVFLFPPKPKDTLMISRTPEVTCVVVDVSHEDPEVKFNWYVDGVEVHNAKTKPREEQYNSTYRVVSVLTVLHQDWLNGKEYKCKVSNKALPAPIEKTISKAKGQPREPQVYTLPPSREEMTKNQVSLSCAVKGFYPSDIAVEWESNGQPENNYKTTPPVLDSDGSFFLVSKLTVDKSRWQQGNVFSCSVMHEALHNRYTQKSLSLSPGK
light: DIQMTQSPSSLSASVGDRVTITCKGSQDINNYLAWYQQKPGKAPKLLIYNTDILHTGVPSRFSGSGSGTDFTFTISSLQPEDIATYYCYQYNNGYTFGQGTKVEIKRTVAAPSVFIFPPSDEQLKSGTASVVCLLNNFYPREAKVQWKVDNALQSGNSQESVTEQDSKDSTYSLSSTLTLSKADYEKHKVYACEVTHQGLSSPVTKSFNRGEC
notes: Four-chain trivalent CD123 x CD3 x CD8 molecule with Fc; also called CD123 mAb 1 x CD3 mAb 1 M2 x TRX2 TRIVALENT-type molecule
As to B1, the binding result in assay [1] was “binds”.

B2: CD123-M13 (bispecific antibody)
chain 1: DFVMTQSPDSLAVSLGERVTMSCKSSQSLLNSGNQKNYLTWYQQKPGQPPKLLIYWASTRESGVPDRFSGSGSGTDFTLTISSLQAEDVAVYYCQNDYSYPYTFGQGTKLEIKGGGSGGGGEVQLVESGGGLVQPGGSLRLSCAASGFTFSTYAMNWVRQAPGKGLEWVGRIRSKYNNYATYYADSVKDRFTISRDDSKNSLYLQMNSLKTEDTAVYYCVRHGNFGNSYVSWFAEWGQGTLVTVSSGGCGGGEVAALEKEVAALEKEVAALEKEVAALEKGGGDKTHTCPPCPAPEAAGGPSVFLFPPKPKDTLMISRTPEVTCVVVDVSHEDPEVKFNWYVDGVEVHNAKTKPREEQYNSTYRVVSVLTVLHQDWLNGKEYKCKVSNKALPAPIEKTISKAKGQPREPQVYTLPPSREEMTKNQVSLWCLVKGFYPSDIAVEWESNGQPENNYKTTPPVLDSDGSFFLYSKLTVDKSRWQQGNVFSCSVMHEALHNHYTQKSLSLSPGK
chain 2: QAVVTQEPSLTVSPGGTVTLTCRSSTGAVTTSNYANWVQQKPGQAPRGLIGGTNKRAPWTPARFSGSLLGGKAALTITGAQAEDEADYYCALWYSNLWVFGGGTKLTVLGGGGSGGGGEVQLVQSGAELKKPGASVKVSCKASGYTFTDYYMKWVRQAPGQGLEWIGDIIPSNGATFYNQKFKGRVTITVDKSTSTAYMELSSLRSEDTAVYYCARSHLLRASWFAYWGQGTLVTVSSGGCGGGKVAALKEKVAALKEKVAALKEKVAALKE
chain 3: not shown
notes: Three-chain diabody with Fc; also called CD123 x CD3 mAb 1 M13 DART-B-type diabody
Regarding B2, the Kd in assay [2] is 0.58 µM; in assay [3], 0.458 µM.

B3: CD123-M17 (bispecific antibody)
chain 1: DFVMTQSPDSLAVSLGERVTMSCKSSQSLLNSGNQKNYLTWYQQKPGQPPKLLIYWASTRESGVPDRFSGSGSGTDFTLTISSLQAEDVAVYYCQNDYSYPYTFGQGTKLEIKGGGSGGGGEVQLVESGGGLVQPGGSLRLSCAASGFTFSTTAMNWVRQAPGKGLEWVGRIRSKYNNYATYYADSVKDRFTISRDDSKNSLYLQMNSLKTEDTAVYYCVRHGNFGNSYVSWFAYWGQGTLVTVSSGGCGGGEVAALEKEVAALEKEVAALEKEVAALEKGGGDKTHTCPPCPAPEAAGGPSVFLFPPKPKDTLMISRTPEVTCVVVDVSHEDPEVKFNWYVDGVEVHNAKTKPREEQYNSTYRVVSVLTVLHQDWLNGKEYKCKVSNKALPAPIEKTISKAKGQPREPQVYTLPPSREEMTKNQVSLWCLVKGFYPSDIAVEWESNGQPENNYKTTPPVLDSDGSFFLYSKLTVDKSRWQQGNVFSCSVMHEALHNHYTQKSLSLSPGK
chain 2: QAVVTQEPSLTVSPGGTVTLTCRSSTGAVTTSNYANWVQQKPGQAPRGLIGGTNKRAPWTPARFSGSLLGGKAALTITGAQAEDEADYYCALWYSNLWVFGGGTKLTVLGGGGSGGGGEVQLVQSGAELKKPGASVKVSCKASGYTFTDYYMKWVRQAPGQGLEWIGDIIPSNGATFYNQKFKGRVTITVDKSTSTAYMELSSLRSEDTAVYYCARSHLLRASWFAYWGQGTLVTVSSGGCGGGKVAALKEKVAALKEKVAALKEKVAALKE
chain 3: not shown
notes: Three-chain diabody with Fc; also called CD123 x CD3 mAb 1 M17 DART-B-type diabody
As for B3, the values for the dissociation constant Kd in assay [2] and in assay [3] were 0.329 µM and 0.29 µM, respectively.

B4: CD123-M18 (bispecific antibody)
chain 1: DFVMTQSPDSLAVSLGERVTMSCKSSQSLLNSGNQKNYLTWYQQKPGQPPKLLIYWASTRESGVPDRFSGSGSGTDFTLTISSLQAEDVAVYYCQNDYSYPYTFGQGTKLEIKGGGSGGGGEVQLVESGGGLVQPGGSLRLSCAASGFTFSTYGMNWVRQAPGKGLEWVGRIRSKYNNYATYYADSVKDRFTISRDDSKNSLYLQMNSLKTEDTAVYYCVRHGNFGNSYVSWFAYWGQGTLVTVSSGGCGGGEVAALEKEVAALEKEVAALEKEVAALEKGGGDKTHTCPPCPAPEAAGGPSVFLFPPKPKDTLMISRTPEVTCVVVDVSHEDPEVKFNWYVDGVEVHNAKTKPREEQYNSTYRVVSVLTVLHQDWLNGKEYKCKVSNKALPAPIEKTISKAKGQPREPQVYTLPPSREEMTKNQVSLWCLVKGFYPSDIAVEWESNGQPENNYKTTPPVLDSDGSFFLYSKLTVDKSRWQQGNVFSCSVMHEALHNHYTQKSLSLSPGK
chain 2: QAVVTQEPSLTVSPGGTVTLTCRSSTGAVTTSNYANWVQQKPGQAPRGLIGGTNKRAPWTPARFSGSLLGGKAALTITGAQAEDEADYYCALWYSNLWVFGGGTKLTVLGGGGSGGGGEVQLVQSGAELKKPGASVKVSCKASGYTFTDYYMKWVRQAPGQGLEWIGDIIPSNGATFYNQKFKGRVTITVDKSTSTAYMELSSLRSEDTAVYYCARSHLLRASWFAYWGQGTLVTVSSGGCGGGKVAALKEKVAALKEKVAALKEKVAALKE
chain 3: not shown
notes: Three-chain diabody with Fc; also called CD123 x CD3 mAb 1 M18 DART-B-type diabody
For the molecule B4, the Kd came out at 0.593 µM in assay [4] and 0.0023 µM in assay [5].

B5: T-CD123-M18 (other)
chain 1: DFVMTQSPDSLAVSLGERVTMSCKSSQSLLNSGNQKNYLTWYQQKPGQPPKLLIYWASTRESGVPDRFSGSGSGTDFTLTISSLQAEDVAVYYCQNDYSYPYTFGQGTKLEIKGGGSGGGGEVQLVESGGGLVQPGGSLRLSCAASGFTFSTYGMNWVRQAPGKGLEWVGRIRSKYNNYATYYADSVKDRFTISRDDSKNSLYLQMNSLKTEDTAVYYCVRHGNFGNSYVSWFAYWGQGTLVTVSSGGCGGGEVAALEKEVAALEKEVAALEKEVAALEKGGGDKTHTCPPCPAPEAAGGPSVFLFPPKPKDTLMISRTPEVTCVVVDVSHEDPEVKFNWYVDGVEVHNAKTKPREEQYNSTYRVVSVLTVLHQDWLNGKEYKCKVSNKALPAPIEKTISKAKGQPREPQVYTLPPSREEMTKNQVSLWCLVKGFYPSDIAVEWESNGQPENNYKTTPPVLDSDGSFFLYSKLTVDKSRWQQGNVFSCSVMHEALHNHYTQKSLSLSPGK
chain 2: QAVVTQEPSLTVSPGGTVTLTCRSSTGAVTTSNYANWVQQKPGQAPRGLIGGTNKRAPWTPARFSGSLLGGKAALTITGAQAEDEADYYCALWYSNLWVFGGGTKLTVLGGGGSGGGGEVQLVQSGAELKKPGASVKVSCKASGYTFTDYYMKWVRQAPGQGLEWIGDIIPSNGATFYNQKFKGRVTITVDKSTSTAYMELSSLRSEDTAVYYCARSHLLRASWFAYWGQGTLVTVSSGGCGGGKVAALKEKVAALKEKVAALKEKVAALKE
heavy: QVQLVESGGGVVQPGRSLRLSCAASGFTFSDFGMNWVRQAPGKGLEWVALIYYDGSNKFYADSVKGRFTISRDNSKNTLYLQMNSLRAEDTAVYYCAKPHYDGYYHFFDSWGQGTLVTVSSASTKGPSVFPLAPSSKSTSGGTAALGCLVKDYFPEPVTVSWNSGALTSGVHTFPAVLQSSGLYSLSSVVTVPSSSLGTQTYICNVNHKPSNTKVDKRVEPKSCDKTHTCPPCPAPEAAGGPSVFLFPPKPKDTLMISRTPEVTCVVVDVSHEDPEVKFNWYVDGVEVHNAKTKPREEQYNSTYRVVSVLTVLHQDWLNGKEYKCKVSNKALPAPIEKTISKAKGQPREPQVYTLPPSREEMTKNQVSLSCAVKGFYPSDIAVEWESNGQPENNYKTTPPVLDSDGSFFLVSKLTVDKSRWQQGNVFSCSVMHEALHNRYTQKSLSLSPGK
light: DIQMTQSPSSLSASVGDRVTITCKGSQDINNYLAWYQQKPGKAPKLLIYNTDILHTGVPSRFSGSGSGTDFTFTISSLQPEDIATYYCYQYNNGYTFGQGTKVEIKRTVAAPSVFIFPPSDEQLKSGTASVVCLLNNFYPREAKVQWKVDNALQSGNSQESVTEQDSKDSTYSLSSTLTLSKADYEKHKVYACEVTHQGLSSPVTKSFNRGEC
notes: Four-chain trivalent CD123 x CD3 x CD8 molecule with Fc; also called CD123 mAb 1 x CD3 mAb 1 M18 x TRX2 TRIVALENT-type molecule
B5: the binding result in assay [1] was “binds”.

B6: CD123-M2 (bispecific antibody)
chain 1: DFVMTQSPDSLAVSLGERVTMSCKSSQSLLNSGNQKNYLTWYQQKPGQPPKLLIYWASTRESGVPDRFSGSGSGTDFTLTISSLQAEDVAVYYCQNDYSYPYTFGQGTKLEIKGGGSGGGGEVQLVESGGGLVQPGGSLRLSCAASGFTFSTYAMNWVRQAPGKGLEWVGRIRSKYNNYATYYADSVKDRFTISRDDSKNSLYLQMNSLKTEDTAVYYCVRHKNFGNSYVTWFAYWGQGTLVTVSSGGCGGGEVAALEKEVAALEKEVAALEKEVAALEKGGGDKTHTCPPCPAPEAAGGPSVFLFPPKPKDTLMISRTPEVTCVVVDVSHEDPEVKFNWYVDGVEVHNAKTKPREEQYNSTYRVVSVLTVLHQDWLNGKEYKCKVSNKALPAPIEKTISKAKGQPREPQVYTLPPSREEMTKNQVSLWCLVKGFYPSDIAVEWESNGQPENNYKTTPPVLDSDGSFFLYSKLTVDKSRWQQGNVFSCSVMHEALHNHYTQKSLSLSPGK
chain 2: QAVVTQEPSLTVSPGGTVTLTCRSSTGAVTTSNYANWVQQKPGQAPRGLIGGTNKRAPWTPARFSGSLLGGKAALTITGAQAEDEADYYCALWYSNLWVFGGGTKLTVLGGGGSGGGGEVQLVQSGAELKKPGASVKVSCKASGYTFTDYYMKWVRQAPGQGLEWIGDIIPSNGATFYNQKFKGRVTITVDKSTSTAYMELSSLRSEDTAVYYCARSHLLRASWFAYWGQGTLVTVSSGGCGGGKVAALKEKVAALKEKVAALKEKVAALKE
chain 3: not shown
notes: Three-chain diabody with Fc; also called CD123 x CD3 mAb 1 M2 DART-B-type diabody
As for B6, the Kd in assay [4] was determined as 0.108 µM; in assay [5] it was 0.0011 µM.
